Data from US20060073152A1 (Genentech, published 2006).
Positions of bridges follow the written chain, without caps; N, C: chain ends. No end group written: not given here.

B1: RB-B16 (peptide)
peptide: HRLVEDICLPRWGCLWGNDF
modifications: not fully specified (bridges); cysteine pairing not given here; also: phage-displayed
notes: on phage
B2: RD-R6 (peptide)
peptide: DSCGDLLRLGLECWA
notes: on phage
B3: SA22 (peptide)
peptide: Ac-RLIEDICLPRWGCLWED-NH2
modifications: not fully specified (bridges); printed as Ac RLIEDICLPRWGCLWEDNH2; cysteine pairing not given here
notes: free peptide
B4: SA20 (peptide)
peptide: Ac-QRLIEDICLPRWGCLWEDDF-NH2
modifications: not fully specified (bridges); printed as Ac QRLIEDICLPRWGCLWEDDF NH2; cysteine pairing not given here
notes: free peptide
B5: RBC-R4 (peptide)
peptide: FEDFCLPNWGCLWGS
notes: on phage
B6: RBC-R14 (peptide)
peptide: EEDLCLPVWGCLWGA
notes: on phage
B7: RD-R2 (peptide)
peptide: DTCADLVRLGLECWA
notes: on phage
B8: RD-R5 (peptide)
peptide: DTCEDLVRLGLECWA
notes: on phage
B9: RD-R7 (peptide)
peptide: NTCADLVRLGLECWA
notes: on phage
B10: RBC-R5 (peptide)
peptide: WEDLCLPDWGCLWED
modifications: not fully specified (bridges); cysteine pairing not given here
notes: on phage
B11: SA33 (peptide)
peptide: Ac-RLIEDICLPRWGCL-NH2
modifications: disulfide 7-13 (inferred)
notes: free peptide
B12: BA-B44 (peptide)
peptide: GEDWCDSTLLAFDLCGEGAR
notes: on phage
B13: RB-R16 (peptide)
peptide: LIFMEDVCLPQWGCLWEDGV
notes: on phage
B14: SA25 (peptide)
peptide: Ac-EDICLPRWGCLWED-NH2
modifications: not fully specified (bridges); printed as Ac EDICLPRWGCLWEDNH2; cysteine pairing not given here
notes: free peptide
B15: RD-R1 (peptide)
peptide: DTCSDLVGLGLECWA
notes: on phage
B16: RBC-R20 (peptide)
peptide: EEDVCLPVWGCLWEG
notes: on phage
B17: BA-B37 (peptide)
peptide: GENWCDWVLLAYDLCGEDNT
notes: on phage
B18: RB-B12 (peptide)
peptide: QGLIGDICLPRWGCLWGDSV
notes: on phage; also called RB-R8
B19: RBC-R8 (peptide)
peptide: NWDLCFPDWGCLWDD
notes: on phage
B20: HC-R10 (peptide)
peptide: QRDMGDICLPRWGCLWEDGV
modifications: not fully specified (bridges); cysteine pairing not given here; also: phage-displayed
notes: on phage
B21: BA-B39 (peptide)
peptide: MELWCDSTLMAYDLCGDFNM
notes: on phage
B22: SA32 (peptide)
peptide: Ac-EDICLPRWGCLW-NH2
modifications: disulfide 4-10 (inferred)
notes: free peptide
B23: RB-B14 (peptide)
peptide: LRIFEDICLPKWGCLWGEGF
notes: on phage
B24: SA26 (peptide)
peptide: Ac-DICLPRWGCLWED-NH2
modifications: disulfide 3-9 (inferred)
notes: free peptide
B25: RBC-R13 (peptide)
peptide: EFDLCLPTWGCLWED
notes: on phage
B26: RBC-R10 (peptide)
peptide: DFDLCLPDWGCLWDD
notes: on phage
B27: SA18 (peptide)
peptide: ICLPRWGCLW-NH2
modifications: not fully specified (bridges); printed as ICLPRWGCLWNH2; cysteine pairing not given here
notes: free peptide
B28: RBC-R11 (peptide)
peptide: VWDLCLPQWGCLWDE
notes: on phage
B29: RBC-R6 (peptide)
peptide: FEDLCVVRWGCLWGD
modifications: not fully specified (bridges); cysteine pairing not given here
notes: on phage
B30: RBC-R15 (peptide)
peptide: MWDVCFPDWGCLWDV
modifications: not fully specified (bridges); cysteine pairing not given here
notes: on phage
B31: RD-R11 (peptide)
peptide: DTCDDLVQLGLECWA
notes: on phage
B32: SA31 (peptide)
peptide: Ac-RLIEDICLPRWGCLW-NH2
modifications: disulfide 7-13 (inferred)
notes: free peptide
B33: SA19 (peptide)
peptide: DICLPRWGCL-NH2
modifications: not fully specified (bridges); printed as DICLPRWGCLNH2; cysteine pairing not given here
notes: free peptide
B34: RB-B1 (peptide)
peptide: RWQTEDVCLPKWGCLFGDGV
modifications: not fully specified (bridges); cysteine pairing not given here; also: phage-displayed
notes: on phage
B35: RBC-R1 (peptide)
peptide: MDDICLHHWGCLWDE
notes: on phage
B36: RBC-R12 (peptide)
peptide: MFDLCLPKWGCLWGN
modifications: not fully specified (bridges); cysteine pairing not given here
notes: on phage
B37: RB-B9 (peptide)
peptide: QMHMMDICLPKWGCLWGDTS
modifications: not fully specified (bridges); cysteine pairing not given here
notes: on phage
B38: SA24 (peptide)
peptide: Ac-IEDICLPRWGCLWED-NH2
modifications: not fully specified (bridges); printed as Ac IEDICLPRWGCLWEDNH2; cysteine pairing not given here
notes: free peptide
B39: RBC-R9 (peptide)
peptide: SEDFCLPVWGCLWED
modifications: not fully specified (bridges); cysteine pairing not given here
notes: on phage
B40: SA23 (peptide)
peptide: Ac-LIEDICLPRWGCLWED-NH2
modifications: not fully specified (bridges); printed as Ac LIEDICLPRWGCLWEDNH2; cysteine pairing not given here
notes: free peptide
B41: RBC-R2 (peptide)
peptide: MDDLCLPNWGCLWGD
modifications: not fully specified (bridges); cysteine pairing not given here
notes: on phage
B42: SA27 (peptide)
peptide: Ac-ICLPRWGCLWED-NH2
modifications: disulfide 2-8 (inferred)
notes: free peptide
B43: SA34 (peptide)
peptide: Ac-DICLPRWGCL-NH2
modifications: disulfide 3-9 (inferred)
notes: free peptide
B44: SA29 (peptide)
peptide: Ac-RLIEDICLPRWGCLWE-NH2
modifications: disulfide 7-13 (inferred)
notes: free peptide
B45: RBC-R18 (peptide)
peptide: EWDVCFPAWGCLWDQ
notes: on phage
B46: RB-B3 (peptide)
peptide: QSYMEDICLPRWGCLSDDAS
modifications: not fully specified (bridges); cysteine pairing not given here; also: phage-displayed
notes: on phage
B47: SA30 (peptide)
peptide: Ac-IEDICLPRWGCLWE-NH2
modifications: disulfide 5-11 (inferred)
notes: free peptide
B48: RB-B10 (peptide)
peptide: QGDFWDICLPRWGCLSGEGY
notes: on phage

How the values were obtained:
[1] = target: T1, rat serum albumin (rat, UniProt P02770 25-608); test: phage binding
T1 construct: also called Rat SA; RSA

[2] = target: T2, rabbit serum albumin (rabbit, UniProt P49065 25-608); test: phage binding
T2 construct: also called Rabbit SA; BuSA

[3] = target: T3, human serum albumin (human, UniProt P02768 25-609); test: phage binding
T3 construct: also called Human SA; HuSA

[4] = target: T2, rabbit serum albumin; test: peptide competition; head prints RSA, read as rabbit

T2 sequence (P49065 25-608 limits assumed): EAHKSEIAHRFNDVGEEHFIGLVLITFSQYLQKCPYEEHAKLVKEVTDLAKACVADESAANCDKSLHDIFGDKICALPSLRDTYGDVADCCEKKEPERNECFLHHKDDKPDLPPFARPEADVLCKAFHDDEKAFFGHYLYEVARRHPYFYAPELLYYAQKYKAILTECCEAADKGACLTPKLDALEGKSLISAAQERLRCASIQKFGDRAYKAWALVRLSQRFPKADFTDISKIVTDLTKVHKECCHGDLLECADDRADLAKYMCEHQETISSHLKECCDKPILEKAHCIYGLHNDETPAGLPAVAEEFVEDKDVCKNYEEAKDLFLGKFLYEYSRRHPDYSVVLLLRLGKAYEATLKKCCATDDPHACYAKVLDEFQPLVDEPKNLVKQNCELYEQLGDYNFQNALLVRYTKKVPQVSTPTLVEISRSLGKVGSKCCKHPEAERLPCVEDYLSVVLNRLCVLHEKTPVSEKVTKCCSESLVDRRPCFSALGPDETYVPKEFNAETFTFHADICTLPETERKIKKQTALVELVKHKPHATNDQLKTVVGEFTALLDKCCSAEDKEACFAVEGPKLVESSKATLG
T1 sequence (P02770 25-608 limits assumed): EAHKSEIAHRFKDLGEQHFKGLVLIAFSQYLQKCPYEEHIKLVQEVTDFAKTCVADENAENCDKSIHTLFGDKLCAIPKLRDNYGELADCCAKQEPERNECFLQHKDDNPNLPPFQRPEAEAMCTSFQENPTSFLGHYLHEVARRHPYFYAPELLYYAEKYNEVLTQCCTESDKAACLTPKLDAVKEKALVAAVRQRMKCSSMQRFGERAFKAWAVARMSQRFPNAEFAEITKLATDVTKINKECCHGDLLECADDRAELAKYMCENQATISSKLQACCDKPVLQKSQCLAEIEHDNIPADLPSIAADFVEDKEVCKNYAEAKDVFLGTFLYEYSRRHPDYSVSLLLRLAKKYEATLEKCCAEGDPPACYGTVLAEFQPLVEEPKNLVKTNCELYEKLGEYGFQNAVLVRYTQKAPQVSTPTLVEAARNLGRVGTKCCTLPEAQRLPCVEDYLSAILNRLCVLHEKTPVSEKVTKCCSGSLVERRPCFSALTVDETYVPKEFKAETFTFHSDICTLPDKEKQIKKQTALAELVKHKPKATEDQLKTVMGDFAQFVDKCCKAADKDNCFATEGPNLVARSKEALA

Binder | binding result [1] | IC50 [4] | further results
B1 | binds | – | binding result [2]: binds; binding result [3]: binds
B2 | binds | – | –
B3 | – | 430 nM | –
B4 | – | 260 nM | –
B5 | binds | – | –
B6 | binds | – | –
B7 | binds | – | –
B8 | binds | – | –
B9 | binds | – | –
B10 | binds | – | –
B11 | – | 4310 nM | –
B12 | – | – | binding result [2]: binds
B13 | binds | – | binding result [2]: binds; binding result [3]: binds
B14 | – | 2730 nM | –
B15 | binds | – | –
B16 | binds | – | –
B17 | – | – | binding result [2]: binds
B18 | binds | – | binding result [2]: binds; binding result [3]: binds
B19 | binds | – | –
B20 | binds | – | binding result [2]: binds; binding result [3]: binds
B21 | – | – | binding result [2]: binds
B22 | – | 2170 nM | –
B23 | binds | – | binding result [2]: binds
B24 | – | 3120 nM | –

Binder | binding result [1] | IC50 [4] | further results
B25 | binds | – | –
B26 | binds | – | –
B27 | – | 125000 nM | –
B28 | binds | – | –
B29 | binds | – | –
B30 | binds | – | –
B31 | binds | – | –
B32 | – | 200 nM | –
B33 | – | 24500 nM | –
B34 | binds | – | binding result [2]: binds
B35 | binds | – | –
B36 | binds | – | –
B37 | binds | – | binding result [2]: binds
B38 | – | 1380 nM | –
B39 | binds | – | –
B40 | – | 360 nM | –
B41 | binds | – | –
B42 | – | 86700 nM | –
B43 | – | 28200 nM | –
B44 | – | 400 nM | –
B45 | binds | – | –
B46 | binds | – | binding result [2]: binds
B47 | – | 1800 nM | –
B48 | binds | – | binding result [2]: binds
